The values that follow come from patent publication US20200262913A1 (ZymoGenetics, published 2020).

Residue numbers refer to the chain shown, from its start. In names and notes the source's numbering stands.

The target in assay [1] is T1, recombinant human IL-31 (hIL-31, BHK produced, A1277F, zcytor17lig CEE) (human, UniProt Q6EBC2 24-164).
T1 construct: also called recombinant hIL-31
T1 sequence: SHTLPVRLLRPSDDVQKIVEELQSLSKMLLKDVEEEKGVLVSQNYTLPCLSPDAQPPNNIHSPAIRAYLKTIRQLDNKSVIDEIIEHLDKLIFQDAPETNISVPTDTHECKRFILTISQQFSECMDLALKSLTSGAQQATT
Kind of assay: SPR (Biacore), mAb amine-coupled to CM5 chip, hIL-31 injected. The procedure: (§1) The purified monoclonal antibodies were immobilized in individual flow cells on a CM5 type sensor chip. Immobilizations were performed using a standard amine coupling procedure, aiming for an immobilization level of 500 Resonance Units (RU). The antibodies were diluted to 1-5 ug/ml in 10 mM NaAc pH 4.5.
(§2) HPS-EP pH 7.4 (10 mM HEPES, 150 mM NaCl, 3 mM EDTA and 0.005% Polysorbat P20) was used as running buffer, and diluents for the recombinant hIL-31 (hIL-31, BHK produced, A1277F, zcytor17lig CEE). The hIL-31 was tested in a 3-fold dilution series from 333.3 nM to 1.4 nM. Association (injection) was 4 min., followed by a 20 min. dissociation (wash) period. Flow rate was 50 ul/min. Experiments were performed at 25OC. Regeneration of the surface was accomplished by injection of 30 sec. pulse of 10 mM Glycin-HCl pH 1.8 or 1M formic acid, at a 30 ul/min flow rate. Detection in all flow cells simultaneously. Flow cell #1 contained no immobilized antibody, and was used for subtraction of background and bulk.
(§3) The kinetic parameters were calculated by global fitting of the data using a 1:1 langmuir binding model. Data was inspected for mass-transport limitations prior to calculation of the kinetic parameters. In some experiments the Rmax was fitted locally, and the RI constant at 0.
A general note: Surface plasmon resonance follows binding to a sensor surface in real time, without labels.

Assay [2] has as its target T2, recombinant human IL-31 (as used in the NHK STAT3 phosphorylation assay of Example 5) (human, UniProt Q6EBC2 24-164, limits assumed).
T2 sequence: T1 sequence
In words: cell-based or functional assay.

Assay [3] deals with recombinant human IL-31 (C108S), produced in E. coli by ZymoGenetics, MW 18 kDa (human), Q6EBC2. Kind of assay: cell-based or functional assay.
The target in assay [4] is T1, recombinant human IL-31 (hIL-31, BHK …). In words: SPR (Biacore), against parent 292.12.3.1. As for the experimental part: as §1, §2, §3

B1: humanized 292.12.3.1 construct clone 8 (12VH5-gly + fback) (antibody, human IgG4, V domains shown)
VH: EVQLVQSGAEVKKPGESLKISCKASGYTLTRYWMQWVRQMPGKGLEWMGAIYPGDGDTRYSPSFQGQVTLTADKSISTAYLQWSSLKASDTAMYYCAFPDGYYAAPYGMDYWGQGTTVTVSS
VL: DIQMTQSPSSLSASVGDRVTITCRASGNIHNYLAWYQQKPGKVPKLLIYNAKTLADGVPSRFSGSRSETQYSLTISSLQPEDVATYYCQHFWSTPWTFGQGTKVEIKR
notes: also called 08
For B1, in assay [1], the Kd (in general, the concentration at which binding is half-saturated) amounted to 1.9 nM; the koff (usually a measure of how fast the partners let go of each other) came to 5.4e-05 s⁻¹; the kon (as a rule, a measure of how fast the partners come together) is 28000 M⁻¹ s⁻¹. In assay [2], the “IC50, IL-31-induced STAT3 phosphorylation in NHK, Exp 4” value is 6.74 nM and the “IC50, IL-31-induced STAT3 phosphorylation in NHK, Exp 10” value was determined as 3.44 nM. Further, in assay [3], the Average Fold loss in potency relative to 292.12.3.1, BAF-3(hIL-31R) proliferation assay was 2.5 fold and the Average Potency (IC50), inhibition of hIL-31-induced proliferation of BAF-3(hIL-31R) cells was 4.1 nM.

B2: humanized 292.12.3.1 construct clone 24 (12VH5-gly + HC(fback) + LC(G66R, G68E, F71Y)) (antibody, human IgG4, V domains shown)
VH: B1 VH
VL: B1 VL with Q70D, S72T
With B2, in assay [3], the Average Fold loss in potency relative to 292.12.3.1, BAF-3(hIL-31R) proliferation assay is 4 fold and the Average Potency (IC50), inhibition of hIL-31-induced proliferation of BAF-3(hIL-31R) cells amounted to 6 nM.

B3: humanized 292.12.3.1 construct clone 7 (12VH1-gly + fback) (antibody, human IgG4, V domains shown)
VH: QVQLVQSGAEVKKPGASVKVSCKASGYTLTRYWMQWVRQAPGQGLEWMGAIYPGDGDTRYSQKFQGRVTLTADKSISTAYMELSSLRSEDTAVYYCAFPDGYYAAPYGMDYWGQGTLVTVSS
VL: B1 VL
notes: also called 07
In the case of B3, in assay [1], the Kd was 1.9 nM, the koff turned out to be 5.7e-05 s⁻¹ and the kon was determined as 33000 M⁻¹ s⁻¹. In addition, in assay [2], the “IC50, IL-31-induced STAT3 phosphorylation in NHK, Exp 4” value was determined as 7.8 nM; the “IC50, IL-31-induced STAT3 phosphorylation in NHK, Exp 6” value was found to be 3.99 nM; the “IC50, IL-31-induced STAT3 phosphorylation in NHK, Exp 7” value was 7.74 nM; the “IC50, IL-31-induced STAT3 phosphorylation in NHK, Exp 8” value worked out at 5.44 nM. For the same molecule, in assay [2], the “IC50, IL-31-induced STAT3 phosphorylation in NHK, Exp 9” value turned out to be 7.58 nM and the “IC50, IL-31-induced STAT3 phosphorylation in NHK, Exp 10” value turned out to be 8.82 nM. In assay [3], the Average Fold loss in potency relative to 292.12.3.1, BAF-3(hIL-31R) proliferation assay is 3.3 fold and the Average Potency (IC50), inhibition of hIL-31-induced proliferation of BAF-3(hIL-31R) cells turned out to be 4.5 nM.

B4: humanized 292.12.3.1 construct clone 22 (12VH5-gly + HC(fback) + LC(G66R, G68E, D70Q, T72S)) (antibody, human IgG4, V domains shown)
VH: B1 VH
VL: B1 VL with Y71F
On to B4, for which, in assay [1], the Kd came to 1.7 nM, the off-rate constant (koff) was determined as 0.00011 s⁻¹ and the on-rate (kon) came out at 67000 M⁻¹ s⁻¹. Besides, in assay [4], the “Relative potency loss (kd)” value is ~2 x to parent. For the same molecule, in assay [3], the Average Fold loss in potency relative to 292.12.3.1, BAF-3(hIL-31R) proliferation assay is 13.2 fold and the Average Potency (IC50), inhibition of hIL-31-induced proliferation of BAF-3(hIL-31R) cells was 14 nM.

B5: humanized 292.12.3.1 construct clone 23 (12VH5-gly + HC(fback) + LC(D70Q, F71Y, T72S)) (antibody, human IgG4, V domains shown)
VH: B1 VH
VL: B1 VL with R66G, E68G
Take B5: in assay [1], the Kd was 1.4 nM, the koff stood at 9e-05 s⁻¹ and the kon was determined as 65000 M⁻¹ s⁻¹. Besides, in assay [4], the “Relative potency loss (KD)” value was ~0.6 x to parent and the “Relative potency loss (kd)” value is ~1.5 x to parent. Besides, in assay [3], the Average Fold loss in potency relative to 292.12.3.1, BAF-3(hIL-31R) proliferation assay was 7.6 fold and the Average Potency (IC50), inhibition of hIL-31-induced proliferation of BAF-3(hIL-31R) cells came to 8.6 nM.

B6: humanized 292.12.3.1 construct clone 21 (12VH5-gly + HC(G24A, S28T, F29L, R94F) + LC(fback)) (antibody, human IgG4, V domains shown)
VH: B1 VH with L70I, T71S
VL: B1 VL
As for B6, in assay [1], the Kd came out at 1.4 nM, the koff was 9.7e-05 s⁻¹ and the kon worked out at 69000 M⁻¹ s⁻¹. Moreover, in assay [3], the Average Fold loss in potency relative to 292.12.3.1, BAF-3(hIL-31R) proliferation assay stood at 3.5 fold and the Average Potency (IC50), inhibition of hIL-31-induced proliferation of BAF-3(hIL-31R) cells is 4.8 nM.

B7: humanized 292.12.3.1 construct clone 11 (12VH5-gly + HC(fback)) (antibody, human IgG4, V domains shown)
VH: B1 VH
VL: B1 VL with R66G, E68G, Q70D, Y71F, S72T
For the molecule B7, in assay [1], the Kd turned out to be 1.46 nM, the koff was 7.6e-05 s⁻¹ and the kon came to 52000 M⁻¹ s⁻¹. Also, in assay [3], the Average Fold loss in potency relative to 292.12.3.1, BAF-3(hIL-31R) proliferation assay was 11.6 fold and the Average Potency (IC50), inhibition of hIL-31-induced proliferation of BAF-3(hIL-31R) cells is 22.8 nM.
